Experimental findings from US20160168251A1 (MorphoSys, published 2016) are described below.

What is called EC50 (read off the curve) is the concentration giving half of the maximal effect. What is called EC50 is the concentration at which the effect is half-maximal.

The target of assay [1] is T1, human NPRA on HEK293 cells bound to ANP (human, UniProt P01160 124-151).
T1 construct: mature; Receptor-ligand complex on cells; also called HEK NPRA cells loaded with ANP; ANP-NPRA complex
T1 sequence: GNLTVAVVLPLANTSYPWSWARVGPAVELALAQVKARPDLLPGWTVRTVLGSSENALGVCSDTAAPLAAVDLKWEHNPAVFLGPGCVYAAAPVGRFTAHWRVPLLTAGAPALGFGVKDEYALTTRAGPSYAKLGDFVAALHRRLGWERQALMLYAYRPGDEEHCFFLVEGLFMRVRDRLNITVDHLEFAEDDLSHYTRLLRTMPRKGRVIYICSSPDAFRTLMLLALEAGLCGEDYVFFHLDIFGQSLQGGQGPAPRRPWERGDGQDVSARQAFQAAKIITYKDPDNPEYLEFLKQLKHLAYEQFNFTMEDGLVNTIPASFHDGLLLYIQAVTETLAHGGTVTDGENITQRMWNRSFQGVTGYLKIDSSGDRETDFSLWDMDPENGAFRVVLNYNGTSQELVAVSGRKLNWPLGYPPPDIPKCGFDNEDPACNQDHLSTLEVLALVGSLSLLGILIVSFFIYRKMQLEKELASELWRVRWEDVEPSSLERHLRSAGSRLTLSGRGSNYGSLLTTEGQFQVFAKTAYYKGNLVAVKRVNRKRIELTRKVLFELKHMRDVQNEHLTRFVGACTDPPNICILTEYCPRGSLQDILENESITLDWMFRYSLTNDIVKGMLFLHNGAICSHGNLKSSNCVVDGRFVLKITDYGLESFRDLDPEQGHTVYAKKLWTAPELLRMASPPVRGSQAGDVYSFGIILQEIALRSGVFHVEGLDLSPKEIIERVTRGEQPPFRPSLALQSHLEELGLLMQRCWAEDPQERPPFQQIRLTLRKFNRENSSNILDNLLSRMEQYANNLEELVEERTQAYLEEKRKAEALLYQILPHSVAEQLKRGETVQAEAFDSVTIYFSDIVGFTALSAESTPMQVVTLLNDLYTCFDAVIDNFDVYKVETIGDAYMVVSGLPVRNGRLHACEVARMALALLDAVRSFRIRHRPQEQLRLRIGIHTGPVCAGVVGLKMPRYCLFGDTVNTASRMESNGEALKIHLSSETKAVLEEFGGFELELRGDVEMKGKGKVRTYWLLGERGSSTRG
T1 sequence (peptide): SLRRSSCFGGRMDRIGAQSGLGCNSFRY
Briefly: FACS, HEK NPRA cells with ANP. A general note: In flow cytometry, cells or beads pass a laser one at a time.

The target of assay [2] is T2, human NPRB on HEK293 cells in the presence of CNP (human, UniProt P20594 23-1047; P23582 105-126).
T2 construct: whole, on cells;mature; also called HEK NPRB cells + 100 nM CNP
Briefly: FACS, HEK NPRB cells with 100 nM CNP.
Protocol: (§1) HEK NPRA cells are detached with Accutase (PAA Laboratories GmbH, Cat. No. L11-007, Austria), harvested by centrifugation (900 rpm, 4 minutes) and resuspended in FACS buffer (PBS/3% FCS/0.02% NaN3) to a final concentration of 10⁶ cells/ml. 100 μl of the cell suspension is transferred to each well of a 96 round bottom plate (TC Microwell 96U, Nunc). […] Cells are washed in 150 μl of FACS buffer, pelleted and resuspended in 50 μl of the solution containing the primary antibody comprising a BEL extract of Fabs, a diluted BEL extract or purified antibody diluted in FACS buffer and incubated on ice for 30 min. Cells are washed again in FACS buffer and resuspended in 50 μl of FACS buffer containing the secondary antibody (R-Phycoerythrin-conjugated Affipure F(ab′)₂ Fragment Goat Anti-Human IgG, Dianova) and incubated on ice for 45 min. Cells are washed twice with FACS buffer and resuspended in 200 μl of FACS buffer for analysis in the FACS Array (BD Biosciences).

For assay [3], the target named is T3, human NPRC on HEK293 cells in the presence of BNP (human, UniProt P17342 27-541; P16860 103-134).
T3 construct: whole, on cells;mature; also called HEK NPRC cells + 100 nM BNP
T3 sequence (looked up): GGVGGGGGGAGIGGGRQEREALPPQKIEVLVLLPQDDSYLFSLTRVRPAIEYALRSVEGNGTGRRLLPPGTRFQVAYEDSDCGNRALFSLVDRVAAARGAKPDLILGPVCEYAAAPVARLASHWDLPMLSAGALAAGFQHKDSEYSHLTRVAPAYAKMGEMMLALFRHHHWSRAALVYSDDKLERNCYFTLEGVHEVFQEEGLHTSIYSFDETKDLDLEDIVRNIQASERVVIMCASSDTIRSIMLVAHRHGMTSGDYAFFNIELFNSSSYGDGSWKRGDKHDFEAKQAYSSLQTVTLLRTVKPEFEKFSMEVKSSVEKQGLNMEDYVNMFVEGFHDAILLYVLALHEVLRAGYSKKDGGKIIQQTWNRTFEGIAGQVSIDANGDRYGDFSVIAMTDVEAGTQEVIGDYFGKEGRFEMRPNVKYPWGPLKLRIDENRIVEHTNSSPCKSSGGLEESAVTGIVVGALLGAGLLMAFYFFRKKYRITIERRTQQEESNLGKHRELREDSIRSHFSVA
T3 sequence (peptide, looked up): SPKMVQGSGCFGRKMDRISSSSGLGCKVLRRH
The assay can be described thus: FACS, HEK NPRC cells with 100 nM BNP.
Protocol: as §1

The target in assay [4] is T4, human NPRA on HEK293 cells, without added ligand (human, UniProt P16066 33-1061).
T4 construct: a signal peptide is not delimited; also called HEK NPRA cells; HEK hNPRA cells
T4 sequence: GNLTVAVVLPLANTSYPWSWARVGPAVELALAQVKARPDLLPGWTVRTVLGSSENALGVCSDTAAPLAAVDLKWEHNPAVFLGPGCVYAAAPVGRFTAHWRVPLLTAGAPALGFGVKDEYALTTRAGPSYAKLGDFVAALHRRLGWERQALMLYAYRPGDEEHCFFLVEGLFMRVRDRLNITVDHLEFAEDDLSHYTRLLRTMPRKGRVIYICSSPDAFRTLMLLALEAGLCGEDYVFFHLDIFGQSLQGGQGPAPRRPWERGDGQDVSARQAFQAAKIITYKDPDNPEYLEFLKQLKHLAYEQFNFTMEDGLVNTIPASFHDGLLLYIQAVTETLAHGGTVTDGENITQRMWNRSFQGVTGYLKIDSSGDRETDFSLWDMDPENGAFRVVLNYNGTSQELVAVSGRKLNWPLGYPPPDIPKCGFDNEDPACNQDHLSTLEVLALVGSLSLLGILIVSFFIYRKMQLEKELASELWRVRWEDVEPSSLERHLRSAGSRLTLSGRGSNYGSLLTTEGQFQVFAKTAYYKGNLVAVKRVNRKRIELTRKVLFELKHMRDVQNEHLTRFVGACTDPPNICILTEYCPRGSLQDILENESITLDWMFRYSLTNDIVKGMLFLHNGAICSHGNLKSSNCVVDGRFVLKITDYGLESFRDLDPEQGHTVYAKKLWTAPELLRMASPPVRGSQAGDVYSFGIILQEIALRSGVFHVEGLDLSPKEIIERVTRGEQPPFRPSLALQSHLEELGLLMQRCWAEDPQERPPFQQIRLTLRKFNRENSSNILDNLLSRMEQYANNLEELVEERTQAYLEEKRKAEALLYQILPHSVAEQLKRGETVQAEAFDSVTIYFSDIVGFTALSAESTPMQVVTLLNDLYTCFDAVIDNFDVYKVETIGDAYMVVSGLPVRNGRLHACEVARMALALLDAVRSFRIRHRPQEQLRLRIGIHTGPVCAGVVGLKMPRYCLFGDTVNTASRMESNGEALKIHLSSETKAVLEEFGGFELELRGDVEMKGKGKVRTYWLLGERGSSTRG
Briefly: FACS, HEK NPRA cells without ligand.

Assay [5] has as its target T1, human NPRA on HEK293 cells bound to ANP. The assay can be described thus: FACS, HEK NPRA cells with 100 nM ANP, IgG4_Pro format.
In assay [6] the target is T5, human NPRC on HEK293 cells, without added ligand (human, UniProt P17342 27-541).
T5 construct: whole, on cells; also called HEK NPRC cells; natriuretic peptide receptor C
T5 sequence (looked up): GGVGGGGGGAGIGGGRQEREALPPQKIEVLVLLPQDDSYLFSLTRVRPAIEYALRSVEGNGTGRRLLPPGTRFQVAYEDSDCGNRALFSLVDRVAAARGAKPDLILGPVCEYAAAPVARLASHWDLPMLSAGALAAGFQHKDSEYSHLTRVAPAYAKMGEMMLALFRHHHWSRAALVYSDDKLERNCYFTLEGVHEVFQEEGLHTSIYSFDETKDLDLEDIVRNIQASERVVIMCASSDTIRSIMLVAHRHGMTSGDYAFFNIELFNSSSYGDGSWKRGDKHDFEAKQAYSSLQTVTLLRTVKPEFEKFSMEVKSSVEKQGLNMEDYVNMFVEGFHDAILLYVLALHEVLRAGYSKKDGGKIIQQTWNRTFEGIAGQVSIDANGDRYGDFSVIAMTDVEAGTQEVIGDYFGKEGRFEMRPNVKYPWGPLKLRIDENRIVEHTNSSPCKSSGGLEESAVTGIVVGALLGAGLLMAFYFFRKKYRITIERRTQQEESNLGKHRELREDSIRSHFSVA
Briefly: FACS, HEK NPRC cells without ligand.
Protocol: as §1

The target of assay [7] is T1, human NPRA on HEK293 cells bound to ANP. Briefly: cell-based or functional assay.
Assay [8] has the same target. The assay can be described thus: cell-based or functional assay. The source holds these as a separate data set.
Assay [9] concerns the target T6, human NPRC on HEK293 cells in the presence of ANP (human, UniProt P17342 27-541; P01160 124-151).
T6 construct: whole, on cells;mature; also called HEK NPRC cells + 100 nM ANP
T6 sequence (looked up): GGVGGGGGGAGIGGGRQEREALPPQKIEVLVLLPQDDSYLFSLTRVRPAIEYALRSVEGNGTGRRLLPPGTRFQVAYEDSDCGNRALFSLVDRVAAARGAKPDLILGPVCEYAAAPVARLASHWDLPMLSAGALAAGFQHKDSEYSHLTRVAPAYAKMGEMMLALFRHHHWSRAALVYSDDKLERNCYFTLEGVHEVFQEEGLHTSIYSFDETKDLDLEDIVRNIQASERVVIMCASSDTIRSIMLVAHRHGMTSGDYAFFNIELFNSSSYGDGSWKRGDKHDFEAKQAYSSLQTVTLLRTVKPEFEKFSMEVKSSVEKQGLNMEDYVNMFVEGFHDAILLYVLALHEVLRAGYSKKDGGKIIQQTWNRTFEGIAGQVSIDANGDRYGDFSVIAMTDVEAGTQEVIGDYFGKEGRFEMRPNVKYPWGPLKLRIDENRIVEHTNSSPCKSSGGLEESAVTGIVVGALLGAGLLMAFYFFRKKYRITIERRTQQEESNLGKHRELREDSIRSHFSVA
T6 sequence (peptide, looked up): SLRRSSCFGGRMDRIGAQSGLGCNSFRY
The assay can be described thus: FACS, HEK NPRC cells with 100 nM ANP.
Protocol: as §1

Assay [10] has as its target T1, human NPRA on HEK293 cells bound to ANP. The assay can be described thus: FACS, IgG4_Pro on HEK NPRA cells in the presence of 100 nM ANP.
Protocol: as §1
Assay [11] has as its target T7, human NPRB on HEK293 cells, without added ligand (human, UniProt P20594 23-1047).
T7 construct: whole, on cells; also called HEK NPRB cells; natriuretic peptide receptor B
T7 sequence (looked up): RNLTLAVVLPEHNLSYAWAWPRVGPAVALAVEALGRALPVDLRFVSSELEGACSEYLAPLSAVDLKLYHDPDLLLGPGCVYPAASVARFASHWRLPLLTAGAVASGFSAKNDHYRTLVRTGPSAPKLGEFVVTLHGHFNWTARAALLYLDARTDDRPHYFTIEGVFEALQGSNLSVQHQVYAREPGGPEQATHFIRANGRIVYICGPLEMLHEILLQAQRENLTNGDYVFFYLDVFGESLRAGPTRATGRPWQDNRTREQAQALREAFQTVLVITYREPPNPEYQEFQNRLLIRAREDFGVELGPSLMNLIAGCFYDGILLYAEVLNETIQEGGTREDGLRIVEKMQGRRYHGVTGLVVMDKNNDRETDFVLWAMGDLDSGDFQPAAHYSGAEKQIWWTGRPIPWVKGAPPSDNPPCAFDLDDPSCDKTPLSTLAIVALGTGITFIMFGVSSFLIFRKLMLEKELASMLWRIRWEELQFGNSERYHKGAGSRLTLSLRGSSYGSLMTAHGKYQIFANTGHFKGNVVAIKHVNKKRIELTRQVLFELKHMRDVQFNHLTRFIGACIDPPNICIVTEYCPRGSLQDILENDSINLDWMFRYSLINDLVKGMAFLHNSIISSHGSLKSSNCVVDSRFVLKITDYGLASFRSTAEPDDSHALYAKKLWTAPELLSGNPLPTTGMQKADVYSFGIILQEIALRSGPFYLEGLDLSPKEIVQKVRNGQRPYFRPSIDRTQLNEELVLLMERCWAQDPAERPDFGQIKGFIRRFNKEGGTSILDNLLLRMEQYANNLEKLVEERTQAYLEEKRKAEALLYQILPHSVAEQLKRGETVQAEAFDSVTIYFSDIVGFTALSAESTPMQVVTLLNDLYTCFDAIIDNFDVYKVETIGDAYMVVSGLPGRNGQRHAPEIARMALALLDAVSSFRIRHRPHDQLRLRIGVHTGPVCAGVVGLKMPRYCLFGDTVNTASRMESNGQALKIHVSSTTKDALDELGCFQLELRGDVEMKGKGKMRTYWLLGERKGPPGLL
The assay can be described thus: FACS, HEK NPRB cells without ligand.
Protocol: as §1

T2 sequence (P23582 105-126 limits assumed, one chain of several): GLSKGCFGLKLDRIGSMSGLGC

B1: 5064 IgG1 (antibody, V domains shown)
VH: QVQLQQSGPGLVKPSQTLSLTCAISGDSVSSRSASWSWIRQSPGRGLEWLGRIYYRSKWYNDYAVSVKSRITINPDTSKNQFSLQLNSVTPEDTAVYYCARMDVPSFRYFDVWGQGTLVTVSS
VL: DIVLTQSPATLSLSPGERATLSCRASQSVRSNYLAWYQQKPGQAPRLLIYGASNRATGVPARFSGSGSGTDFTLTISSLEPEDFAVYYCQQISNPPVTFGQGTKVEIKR
notes: Human IgG1 format
As to B1, the “EC50 (read off the curve)” value in assay [1] was approximately 0.5 nM.

B2: 5504 IgG4_Pro (antibody, V domains shown)
VH: QVQLQQSGPGLVKPSQTLSLTCAISGDSVSSRSASWSWIRQSPGRGLEWLGRIYYRSKWYNDYAVSVKSRITINPDTSKNQFSLQLNSVTPEDTAVYYCARMDVPSFRYFDVWGQGTLVTVSS
VL: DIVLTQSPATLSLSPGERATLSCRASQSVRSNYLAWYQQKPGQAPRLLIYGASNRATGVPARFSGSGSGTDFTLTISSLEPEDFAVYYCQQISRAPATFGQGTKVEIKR
notes: Human IgG4_Pro
Consider B2, for which the binding result in assay [2], in [3], in assay [4], in assay [6], in assay [9] and in [11] was “no binding (tested: 20 nM)” each time. For the same molecule, in [5], the “EC50 (read off the curve)” value was approximately 0.5 nM. Further, in [7], the “cGMP EC50 (nM), titration of the antibody on HEK NPRA cells with 200 pM ANP” value turned out to be 1.2 nM. For the same molecule, in assay [8], the “fold increase in the potency of ANP (cGMP, HEK NPRA cells, 200 nM IgG4_Pro)” value is not above 10 fold. Moreover, in assay [10], the EC50 is 0.56 nM.
